Assay results published in doi:10.1101/293530.

How the values were obtained:
[1] = target: mCherry-IZ-sCD95L; assay: fluorescence correlation spectroscopy
[2] = target: mCherry-sCD95L; assay: fluorescence correlation spectroscopy
[3] = target: T1, CD95-mEos2 (human), P25445; assay: quantitative PALM; conditions: remark: other sources report otherwise
T1 chain: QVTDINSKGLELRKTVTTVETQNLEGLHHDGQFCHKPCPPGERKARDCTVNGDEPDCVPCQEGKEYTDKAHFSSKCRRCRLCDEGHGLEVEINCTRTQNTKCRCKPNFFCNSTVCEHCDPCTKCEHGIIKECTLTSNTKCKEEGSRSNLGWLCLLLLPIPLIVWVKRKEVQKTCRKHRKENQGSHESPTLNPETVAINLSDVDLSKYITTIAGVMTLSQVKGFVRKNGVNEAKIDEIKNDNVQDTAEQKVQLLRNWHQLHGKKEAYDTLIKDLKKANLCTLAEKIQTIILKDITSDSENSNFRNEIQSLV

In the case of mCherry-IZ-sCD95L (ligand), the stoichiometry N [1] is reported as 3.

In the case of mCherry-sCD95L (ligand), the stoichiometry N [2] is reported as 3.

B1: CD95-mEos2, P25445 26-335 (receptor)
chain: QVTDINSKGLELRKTVTTVETQNLEGLHHDGQFCHKPCPPGERKARDCTVNGDEPDCVPCQEGKEYTDKAHFSSKCRRCRLCDEGHGLEVEINCTRTQNTKCRCKPNFFCNSTVCEHCDPCTKCEHGIIKECTLTSNTKCKEEGSRSNLGWLCLLLLPIPLIVWVKRKEVQKTCRKHRKENQGSHESPTLNPETVAINLSDVDLSKYITTIAGVMTLSQVKGFVRKNGVNEAKIDEIKNDNVQDTAEQKVQLLRNWHQLHGKKEAYDTLIKDLKKANLCTLAEKIQTIILKDITSDSENSNFRNEIQSLV
Work on B1 yielded a fraction of dimers [3] of 42% and a fraction of monomers [3] of 58%.
